{"source": "patent US8557971B2", "about": "“Chimeric viral envelopes” (Aarhus Universitet, priority 2006, dated 2013)", "molecules": {"B1": {"name": "SL3-2/apelin chimeric envelope peptide, \"Apelin@155 RT\" (other)", "chain": "VQHDSPHQVFNVTWRVTNLMTGQTANATSLLGTMTDAFPKLYFDLCDLIGDDWDETGLGCRTPGGRKRARIFDFYVCPGHTVLAGCGGPREGYCGKWGCETTGQAYWKPSSSWDLISLKRGNTQGIYQCSGGSGQRPRLSHKGPMPFSGGSGCGPCYDSSVVSSSAQGATPGGRCNPLVLEFTDAGKRASWDASKAWGLRLYRSTRTDPVTRFSLTRQVLNIGPRVPIGPNPVIIDQLPPSRPVQVMLPRPPQPPPPGAASTVPETAPPSQQPGTGDRLLNLVNGAYQALNLTSPDKTQECWLCLVAGPPYYEGVAVLGTYSNHTSAPANCSVASQHKLTLSEVTGQGLCVGAVPKTHQALCNTTQKTSNGSYYLAAPAGTIWACNTGLTPCLSTTVLDLTTDYCVLVELWPKVTYHSPGYVYGQFEEKTKYKREPVSLTLALLLGGLTMGGIAAGVGTGTTALVATQQFQQLQAAMQDDLKEVEKSITNLERSLTSLSEVVLQNRRGLDLLFLKEGGLCAALKEECCFYADHTGLVRDSMAKLRERLSQRQKLFESQQGWFEGLFNKSPWFTTLISTIMGPLIILLLILLFGPCILNHLVQFIKDRVSVVQALVLTQQYHQLKTIEDCESRE"}, "B2": {"name": "155GI (protein)", "chain": "B1 chain with R206G, T207I"}, "B3": {"name": "SL3-2/apelin chimeric envelope peptide, \"Apelin@155 GI\" (other)", "chain": "B1 chain with R206G, T207I"}, "B4": {"name": "AP@155: SL3-2 envelope with apelin inserted at position 155 (variant not specified) (protein)", "chain": "B1 chain with R206G, T207I"}, "B5": {"name": "SL3-2/apelin chimeric envelope polypeptide 'AP165 RT' (other)", "chain": "VQHDSPHQVFNVTWRVTNLMTGQTANATSLLGTMTDAFPKLYFDLCDLIGDDWDETGLGCRTPGGRKRARIFDFYVCPGHTVLAGCGGPREGYCGKWGCETTGQAYWKPSSSWDLISLKRGNTPKGQGPCYDSSGGSGQRPRLSHKGPMPFSGGSGSSSAQGATPGGRCNPLVLEFTDAGKRASWDASKAWGLRLYRSTRTDPVTRFSLTRQVLNIGPRVPIGPNPVIIDQLPPSRPVQVMLPRPPQPPPPGAASTVPETAPPSQQPGTGDRLLNLVNGAYQALNLTSPDKTQECWLCLVAGPPYYEGVAVLGTYSNHTSAPANCSVASQHKLTLSEVTGQGLCVGAVPKTHQALCNTTQKTSNGSYYLAAPAGTIWACNTGLTPCLSTTVLDLTTDYCVLVELWPKVTYHSPGYVYGQFEEKTKYKREPVSLTLALLLGGLTMGGIAAGVGTGTTALVATQQFQQLQAAMQDDLKEVEKSITNLERSLTSLSEVVLQNRRGLDLLFLKEGGLCAALKEECCFYADHTGLVRDSMAKLRERLSQRQKLFESQQGWFEGLFNKSPWFTTLISTIMGPLIILLLILLFGPCILNHLVQFIKDRVSVVQALVLTQQYHQLKTIEDCESRE"}, "B6": {"name": "SL3-2/apelin chimeric envelope AP@165 GI (other)", "chain": "B5 chain with R200G, T201I"}, "B7": {"name": "SL3-2GI (protein)", "chain": "VQHDSPHQVFNVTWRVTNLMTGQTANATSLLGTMTDAFPKLYFDLCDLIGDDWDETGLGCRTPGGRKRARIFDFYVCPGHTVLAGCGGPREGYCGKWGCETTGQAYWKPSSSWDLISLKRGNTPKGQGPCYDSSVVSSSAQGATPGGRCNPLVLEFTDAGKRASWDASKAWGLRLYRSTGIDPVTRFSLTRQVLNIGPRVPIGPNPVIIDQLPPSRPVQIMLPRPPQPPPPGAASTVPETAPPSQQPGTGDRLLNLVNGAYQALNLTSPDKTQECWLCLVAGPPYYEGVAVLGTYSNHTSAPANCSVASQHKLTLSEVTGQGLCVGAVPKTHQALCNTTQKTSNGSYYLAAPAGTIWACNTGLTPCLSTTVLDLTTDYCVLVELWPKVTYHSPGYVYGQFEEKTKYKREPVSLTLALLLGGLTMGGIAAGVGTGTTALVATQQFQQLQAAMQDDLKEVKKSITNLERSLTSLSEVVLQNRRGLDLLFLKEGGLCAALKEECCFYADHTGLVRDSMAKLRERLSQRQKLFESQQGWFEGLFNKSPWFTTLISTIMGPLIILLLILLFGPCILNHLVQFIKDRVSVVQALVLTQQYHQLKTIEDCESRE"}}, "key": {"[1]": {"target": "polytropic Xpr1 receptor on NIH3T3 murine cells (murine, UniProt Q9Z0U0)", "test": "cell-based or functional assay"}, "APJ": {"target": "APJ (Homo sapiens (Human), UniProt P35414)", "test": "cell-based or functional assay"}, "D17 APJ": {"test_system": "D17 APJ", "test": "Titer on D17 cells expressing APJ", "assay_type": "cell-based, dog", "details": "for Titer, D17 APJ: Titer Experiment 1, D17 cells expressing APJ", "procedure": "(§1) Transfections were done by calcium phosphate precipitation method, described by Graham and van der Eb (Graham and van der Eb, 1973) leaving the calcium precipitate on the cells for 24 hours. 293T cells were transfected using 8 μg of envelope expression plasmid, 2 μg gagpol expression plasmid (Morita et al., 2000) and 1 μg of an EGFP expressing plasmid. EGFP was included as a visual aid to determine the success of transfections. Medium on the transfected cells was renewed every day until it was used for transduction, usually between 48 and 72 hours after transfection, depending on the number of green fluorescing cells.\n(§2) The day before transduction, medium was changed from fetal calf serum to newborn calf serum containing medium. Semi-packaging cells (Bahrami et al., 2003) were seeded at concentration of 10^4 cells/cm^2 24 hours before transduction.\n(§3) Supernatant from transfected cells was filtered (0.22μ). The supernatant with 6 μg/mL polybrene was added to the target cells. 24 hours later, the infected cells were selected using medium described before containing 600 μg/mL G418 for 10 days.\nThe ability of redirecting the retroviral fusion machinery to a desired receptor would have wide biotechnological and potentially also nanotechnological applications. However, the regulatory mechanisms that interconnect receptor binding with fusion are poorly understood, which has made intelligent engineering of the envelope protein difficult. […] Using the envelope protein of the SL3-2 murine leukemia virus isolate (Pedersen et al., 1981) as a backbone and insertion of the 13 amino acid peptide ligand apelin by structure based design, we achieved efficient membrane fusion in a manner dependent upon APJ, the receptor for apelin (Fan et al., 2003; Kawamata et al., 2001) (FIG. 12). APJ belongs to the large family of G-protein-coupled receptors (GPCRs) involved in cell signaling with more than 1000 members in man (Puffer et al., 2000). All GPCRs are characterized by having 7 transmembrane helices (7-TM). Some of the receptors respond to peptide ligands such as apelin. […]"}, "NIH 3T3": {"test_system": "NIH 3T3", "test": "Titer (transduction) of chimeric envelope constructs on NIH 3T3 cells", "assay_type": "cell-based, mouse", "details": "Titer Experiment 1; NIH 3T3 mouse cells", "procedure": "as §1, §2, §3"}, "D17": {"test_system": "D17", "test": "Titer on D17 dog cells", "assay_type": "cell-based", "details": "for Titer, D17: Titer Experiment 1, D17 dog cells", "procedure": "as §1, §2, §3"}, "NIH 3T3 MCF 247": {"test_system": "NIH 3T3 MCF 247", "test": "Titer on NIH 3T3 cells infected with MCF 247 (blocked polytropic receptor)", "assay_type": "cell-based, mouse", "details": "Titer Experiment 1; NIH 3T3 infected with MCF 247", "procedure": "FIG. 24. The SL3-2 chimeric envelopes can use two different receptors. […] NIH3T3: Murine cells, NIH3T3+MCF247: murine cells infected with MCF247, thus having a blocked polytropic receptor, D17: Dog cells, D17-APJ: Dog cells expressing APJ, D17-APJ-6 uM Apelin 13: Dog cells expressing APJ incubated with 6 uM apelin-13 peptide for 1 h.\nas §1, §2\nSupernatant from transfected cells was filtered (0.22μ). The supernatant with 6 μg/mL polybrene was added to the target cells. […]"}, "human cells": {"test_system": "human cells", "test": "Infection of human cells", "assay_type": "cell-based", "details": "qualitative"}}, "note": "Positions count from the first letter of the chain named.", "data": [{"molecule": "B1", "values": [{"measurement": "Titer on NIH 3T3 (Titer Experiment 1; unit not given)", "setting": "[1]", "result": 500000}, {"measurement": "Titer on D17 APJ (Titer Experiment 1; unit not given)", "setting": "APJ", "result": 1750}]}, {"molecule": "B2", "values": [{"measurement": "Titer, D17 APJ", "setting": "D17 APJ", "result": "4 × 10^2"}, {"measurement": "Titer, NIH 3T3", "setting": "NIH 3T3", "result": "7.5 × 10^5"}, {"measurement": "Titer, D17", "setting": "D17", "result": 2.5}, {"measurement": "Titer, NIH 3T3 MCF 247", "setting": "NIH 3T3 MCF 247", "result": "0.25 × 10^1"}]}, {"molecule": "B3", "values": [{"measurement": "Titer on NIH 3T3 (Titer Experiment 1; unit not given)", "setting": "[1]", "result": 750000}, {"measurement": "Titer on D17 APJ (Titer Experiment 1; unit not given)", "setting": "APJ", "result": 400}]}, {"molecule": "B4", "values": [{"measurement": "APJ-dependent entry / membrane fusion into D17 dog cells", "setting": "D17 APJ; qualitative, FIG. 12", "result": "suboptimal relative to AP@165"}]}, {"molecule": "B5", "values": [{"measurement": "Titer on NIH 3T3 (Titer Experiment 1; unit not given)", "setting": "[1]", "result": "3e+06"}, {"measurement": "Titer on D17 APJ (Titer Experiment 1; unit not given)", "setting": "APJ", "result": "2.5e+06"}]}, {"molecule": "B6", "values": [{"measurement": "Titer, D17 APJ", "setting": "D17 APJ", "result": "1.25 × 10^6"}, {"measurement": "Titer, NIH 3T3", "setting": "NIH 3T3", "result": "4 × 10^6"}, {"measurement": "Titer, D17", "setting": "D17", "result": "1.25 × 10^1"}, {"measurement": "Titer on NIH 3T3 (Titer Experiment 1; unit not given)", "setting": "[1]", "result": "4e+06"}, {"measurement": "Titer on D17 APJ (Titer Experiment 1; unit not given)", "setting": "APJ", "result": "1.25e+06"}, {"measurement": "Titer, NIH 3T3 MCF 247", "setting": "NIH 3T3 MCF 247", "result": 0}]}, {"molecule": "B7", "values": [{"measurement": "Infection of dog cells", "setting": "D17; qualitative", "result": "not dog cells"}, {"measurement": "Infection of human cells", "setting": "human cells", "result": "infects human cells"}]}]}
